23 molecules from US20040018198A1 (Amgen, published 2004) can be followed below.

Substitutions are numbered along the chain they refer to.

The chains are these.
B1: AB-MN-22.13.1 (antibody, human IgG2, V domains shown)
VH: RVQLVESGGGLVQPGGSLRLSCAASGFTFSRYSMNWVRQAPGKGLEWVSYISSSSSTIYYADSVKGRFTISRDSAKNSLYLQMNSLRDEDTAVYYCARSLRSGGMDVWGQGTTVTVSS
VL: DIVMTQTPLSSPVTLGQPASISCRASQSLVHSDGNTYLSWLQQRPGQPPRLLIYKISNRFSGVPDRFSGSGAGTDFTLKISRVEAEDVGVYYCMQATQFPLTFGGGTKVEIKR
notes: also called AX014H22-13-1
B2: AB-MN-21.6.1 (antibody, human IgG1, V domains shown)
VH: QVQLQESGPGLVKPSQTLSLTCTVSGGSISSGGYYWSWIRQHPGKGLEWIGYIYYSGSTYYNPSLKSRVTISVDTSKNQFSLKLSSVTAADTAVYYCARAGKYYGSGSYLDYWGQGTLVTVSS
VL: not shown
notes: also called AX014H21-6-1
B3: AB-MN-21.5.2 (antibody, V domains shown)
VH: B2 VH with Q5E, E6Q, Y34R, V73I, K102T
VL: not shown
notes: also called 21.5.2 n; AX014H21-5-2
B4: AB-MN-21.1.1 (antibody, human IgG1, V domains shown)
VH: QVQLQESGPGLVKPSETLSLTCTVSGGSISSYYWSWIRQPPGKGLEWIGYIYYSGSTNYNPSLKSRVTISVDTSKNQFSLKLSSVTAADTAVYYCARRGYDILTGYDYFDYWGQGTLVTVSS
VL: DIQMTQSPSSVSASVGDRVTITCRASQGISIWLTWYQQKPGKAPKLLIYAASSLQSGVPSRFSGSGSGTDFTLTISSLQPEDFATYYCQQANSFPITFGQGTRLEIK
notes: also called 21.1.1 a; AX014H21-1-1
B5: AB-MN-22.17 (antibody, human IgG2, V domains shown)
VH: B4 VH
VL: B4 VL
notes: also called AX014H22-17
B6: AB-MN-22.12 (antibody, human IgG2, V domains shown)
VH: QVQLQESGPGLVKPSETLSLTCTVSGGSISSYYWSWIRQPPGKGLEWIGYIYSSGSTNYNPSLKSRVTISVDTSKNQFSLKLSSVTAADTAVYYCARDQHSSSFYYYYYGMDVWGQGTTVTVSS
VL: B4 VL with I31S, T34A, I96L, Q100P, R103K, L104V, E105D
notes: also called AX014H22-12
B7: AB-MN-21.14.1 (antibody, human IgG1, V domains shown)
VH: B4 VH with I102F
VL: B4 VL with I31S, T34A, Y36F
notes: also called 21.14.1 j; AX014H21-14-1
B8: AB-MN-22.7 (antibody, human IgG2, V domains shown)
VH: QVQLVESGGGVVQPGRSLRLSCAASGFTFSSYGMHWVRQAPGKGLEWVAVISYDGSNKYYADSVKGRFTFSRDNSKNTLYLQMNSLRAEDTAVYYCARRGITMVRGAPSYYGMDVWGQGTTVTVSS
VL: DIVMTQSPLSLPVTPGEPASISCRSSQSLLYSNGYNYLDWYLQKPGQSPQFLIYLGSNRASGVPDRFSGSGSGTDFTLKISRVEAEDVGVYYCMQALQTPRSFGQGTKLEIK
notes: also called AX014H22-7
B9: AB-MN-22.8.1 (antibody, human IgG2, V domains shown)
VH: SGPGLVKPSETLSLTCTVSGGSISSYYWSWIRQPPGKGLEWIGYIYYSGSTNYNPSLKSRVTISVDTSKNQFSLKLTSVTAADTAVYYCARDQHSSSVYYYYYGMDVWGQGTTVTVSS
VL: ETQLTQSPGTLSLSPGERATLSCRASQSIYINYLAWYQQKPGQAPRLLISGASSRATGIPDRFSGSGSGTDFTLTISRLEPEDFAVYYCQQYGRSLTFGGGTEVEIKR
notes: also called AX014H22-8-1
B10: AB-MN-22.15 (antibody, human IgG2, V domains shown)
VH: QVQLQESGPGLVKPSQTLSLTCTVSGGSISSGGYYWSWIRQHPGKGLEWIGYIYYSGYTYYNPSLKSRVTISVDTSKNQFSLKLSSVTAADTAVYYCARDRYYDILTGYYNYGMDVWGQGTTVTVSS
VL: not shown
notes: also called AX014H22-15
B11: AB-MN-XG1-051 (antibody, human IgG1, V domains shown)
VH: EVQLVEFGGGLVKPGGSLRLSCAASGFTFSSFRMNWVRQAPGEGLEWVSSITSSSSYIYYADSVKGRFTISRDNAKNSLYLQMNSLRAEDTAVYYCARFTAMALDYWGQGTLVTVSS
VL: DIQMTQSPSSLSASVGDRVTITCRASQGIFNYLAWYQQKPGKVPKLLIYAASTLQSGVPSRFSGSGSGTDFTLTISSLQPEDVAVYYCLKYNSAPWTFGQGTKVEIK
notes: also called MN51; AB-MN-XG1-51
B12: AB-MN-XG1-023 (antibody, human IgG1, V domains shown)
VH: QVQLQESGPGLVKPSQTLSLTCTVSGGSISSGGYYWSWIRQHPGKGLEWIGYIYYSGSTYYNPSLKSRVTISVDTSKNQFSLKLSSVTAADTAVYYCARENYDILTGFNWFDPWGQGTLVTVSS
VL: DIQMTQSPSSVSASVGDRVTITCRASQGISSWLAWYQQKPGKAPKVLIYSTSRLQSGVPSRFSGSGSGTDFTLTISSLQPEDFATYYCQQADSFRTFGQGTKVEIK
notes: also called MN23; AB-MN-XG1-23
B13: AB-MN-XG1-080 (antibody, human IgG1, V domains shown)
VH: QVQLQESGPGLVKPSETLSLTCTVSGGSISSYYWSWIRQPPGKGLEWIGYIYYSGSTNYNPSLKSRVTISVDTSKNQFSLKLSSVTAADTAVYYCARDTRTIFGVVSGMDVWGQGTTVTVSS
VL: EIVLTQSPGTLSLSPGERATLSCRASQSVYSSYLAWYQQKPGQAPRLLIYGASSRAPGIPDRFSGSGSGTDFTLTISRLEPEDFAVYYCQHYGRSLTFGGGTKVEIK
notes: also called MN80
B14: AB-MN-22.19 (antibody, human IgG2, V domains shown)
VH: QVQLQESGPGLVKPSETLSLTCTVSGGSISFYYWNWIRQPAGKGLEWVGRIYTSGSTNYNPSLKSRVTMSVDTSKNQFSLKLSSVTAADTAVYYCARGGFLEWDYYYGMDVWGQGTTVTVSS
VL: B13 VL with Y30S, S31V, S32T, P57T, H91Q, R94S, L96V
notes: also called AX014H22-19
B15: AB-MN-XG1-141 (antibody, human IgG1, V domains shown)
VH: B13 VH with T23S, K75N, Q77H
VL: B13 VL with A25T, S28T, S32T, P57T, Y87F
notes: also called MN141
B16: AB-MN-21.2.1 (antibody, human IgG1, V domains shown)
VH: QVQLQESGPGLVKPSQTLSLTCTVSGGSISSGGYYWNWIRQHPGKGLEWIGYIYYSGSTYYNPSLKSRVTISVDTSKNQFSLKLSSVTAADTAVYYCARTYYDILTGYPDAFDIWGQGTMVTVSS
VL: DIQMTQSPSSLSASVGDRVTITCRASQDIRNDLGWYQQKPGKAPKRLICAASSLQSGVPSSFSGSGSGTEFTLTISSLQPEDFATYYCLQHNSYPWTFGQGTKVEIK
notes: also called AX014H21-2-1
B17: AB-MN-22.14 (antibody, human IgG2, V domains shown)
VH: QVQLQESGPGLVKPSETLSLTCTVSGGSVISGGYYWSWIRQPPGKGLEWIGYIYYSGSSNYNPSLKSRVTISVDASKNQFSLRLSSVTAADTAVYYCARSMVRGVSFDYWGQGTLVTVSS
VL: B16 VL with D28G, C49Y, S61R, W96L, Q100G
notes: also called AX014H22-14
B18: AB-MN-22.28.1 (antibody, human IgG2, V domains shown)
VH: QVQLEQSGGGLVQPGGSLRLSCAASGFTFSSYAMSWVRQAPGKGLEWVSAISGSGGGTYYADSVKGRFTISRDNSKNTLYLQMNSLRAEDTAVYYCASGRYYYYYDMDVWGQGTTVTVSS
VL: B16 VL with Q3R, M4L, D28G, C49Y, S61R, W96L, Q100G
notes: the numbering there is inconsistent; also called AX014H22-28-1
B19: AB-MN-22.25 (antibody, human IgG2, V domains shown)
VH: QLQLQESGPGLVKPSETLSLTCTVSDGSISSSSYYWGWIRQPPGKGLEWIGSIYYSGSTYYNPSLKSRVTISVDTSKNQFSLKLSSVTAADTAVYYCARHGSFFDYWGQGTLVTVSS
VL: B16 VL with D28G, C49Y, S61R, A84T, H91Y, N92K
notes: also called AX014H22-25
B20: AB-MN-22.18 (antibody, human IgG2, V domains shown)
VH: B16 VH
VL: B16 VL
notes: also called AX014H22-18
B21: AB-MN-22.20 (antibody, human IgG2, V domains shown)
VH: B16 VH with Y34S, N37T, S58N
VL: B16 VL with D28G, C49Y, S61R, A84T, H91Y, N92K
notes: also called AX014H22-20
B22: AB-MN-21.17.1 (antibody, human IgG1, V domains shown)
VH: QVQLQESGPGLVKPSETLSLTCTVSGGSISSYYWSWIRQPAGKGLEWIGRIYTSGSTNYNPSLKSRVTMSVDTSKNQFSLKLSSVTAADTAVYYCARDGQWLEDYGMDVWGQGTTVTV
VL: EIVLTQSPGTLSLSPGERATLSCWASQSVFSNYLAWYQQKPGQAPRLLIYGASSRATGIPDRFSGSGSGTDFPLTISRLEPEDFAVYYCQQYGSSPLTFGGGTKVEIK
notes: also called 21.17.1 I; AX014H21-17-1
B23: AB-MN-21.10.1 (antibody, human IgG1, V domains shown)
VH: QLEQSGPGLVKPSETLSLTCTVSDGSISSSSYYWGWIRQPPGKGLEWIGSIYYSGSTYYNPSLKSRVTISVDTSKNQFSLKLSSVTAADTAVYYCARHGSFFDYWGQGTLVTVSS
VL: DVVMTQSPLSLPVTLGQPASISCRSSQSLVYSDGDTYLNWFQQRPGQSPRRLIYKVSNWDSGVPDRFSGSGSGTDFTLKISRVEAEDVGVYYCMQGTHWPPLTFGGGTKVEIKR
notes: also called 21.10.1 g; AX014H21-10-1

The target in one assay is CA IX catalytic domain protein (CA9-CD) (human, UniProt Q16790 138-391). The assay is described as follows: ELISA on CA9-CD (catalytic domain).
Take B1: the OD is 0.118 OD.

Molecule B2 displayed an OD of 2.25 OD.

With B3, the OD is 2.43 OD.

Consider B4, for which the OD was found to be 2.5 OD.

B5 came in with an OD of 2.57 OD.

Consider B6, for which the OD amounted to 2.58 OD.

Regarding B7, the OD was determined as 2.47 OD.

The molecule B8 registered an OD of 0.715 OD.

For B9, the OD was determined as 2.77 OD.

B10 displayed an OD of 2.53 OD.

Molecule B11 yielded an OD of 2.88 OD.

Consider B12, for which the OD was found to be 2.42 OD.

The molecule B13 registered an OD of 2.85 OD.

The molecule B14 came in with an OD of 3.01 OD.

Consider B15, for which the OD was found to be 2.56 OD.

In turn, B16 gave an OD of 2.48 OD.

B17 had an OD of 2.03 OD.

As for B18, the OD stood at 2.54 OD.

B19 yielded an OD of 2.48 OD.

Molecule B20 had an OD of 2.75 OD.

For B21, the OD is 2.71 OD.

As to B22, the OD amounted to 2.66 OD.

The target of another assay is CA-IX-His-ECD (his-V5 tagged version of the CA IX protein, extracellular domain) (human, UniProt Q16790 38-414). The assay is described as follows: ELISA on CA-IX-His-ECD. (In an ELISA, binding on a coated surface is turned into a signal by an enzyme label.)
B1 came in with an OD of 1.85 OD.

Molecule B2 displayed an OD of 0.618 OD.

As for B3, the OD was found to be 0.893 OD.

As for B4, the OD came to 1.64 OD.

As to B5, the OD is 2.16 OD.

B6 came in with an OD of 2.38 OD.

Turning to B7, the OD turned out to be 1.78 OD.

Regarding B23, the OD came to 0.059 OD.

B8 registered an OD of 0.097 OD.

The molecule B9 came in with an OD of 2.41 OD.

Take B10: the OD was 0.831 OD.

In turn, B11 displayed an OD of 2.47 OD.

The molecule B12 returned an OD of 2.22 OD.

As for B13, the OD is 2.71 OD.

Molecule B14 yielded an OD of 2.12 OD.

In the case of B15, the OD was found to be 2.56 OD.

The molecule B16 displayed an OD of 1.21 OD.

For B17, the OD was 0.763 OD.

In the case of B18, the OD turned out to be 0.404 OD.

As to B19, the OD was found to be 1.84 OD.

The molecule B20 registered an OD of 2.23 OD.

B21 displayed an OD of 1.72 OD.

With B22, the OD was 1.85 OD.
